Where only a bound is given, the exact number is not on record here.

For one assay, the target named is T1, mouse IL-13 (mouse, UniProt P20109 26-131, limits assumed).
T1 construct: also called mIL-13; murine IL-13
T1 sequence (looked up): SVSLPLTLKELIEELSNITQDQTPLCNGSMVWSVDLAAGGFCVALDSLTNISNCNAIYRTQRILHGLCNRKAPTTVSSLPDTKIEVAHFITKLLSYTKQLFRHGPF
The assay can be described thus: indirect ELISA, captured mAb, biotinylated mouse IL-13. A general note: In an ELISA, binding on a coated surface is turned into a signal by an enzyme label.

The next assay concerns the target cynomolgus IL-13 (cynomolgus, UniProt Q0PW92 21-132). Nature of the assay: cell-based or functional assay.
Assay [1] addresses T2, human IL-13 wild type (human, UniProt P35225 35-146). The assay can be described thus: cell-based or functional assay.
The target of assay [2] is T3, human IL-13 variant (R130Q) (human, UniProt P35225 35-146). The assay can be described thus: cell-based or functional assay.
Assay [3] concerns the target T2, human IL-13 wild type. The assay can be described thus: SPR (Biacore), mAb captured, IL-13 as analyte. (In general: SPR reads the build-up and loss of mass on a sensor chip optically.)
In assay [4] the target is T3, human IL-13 variant (R130Q). Nature of the assay: SPR (Biacore), mAb captured, IL-13 as analyte.
Assay [5] concerns the target T2, human IL-13 wild type. Nature of the assay: blocking of IL-13 binding to IL-13Rα2, receptor binding assays.

T2 sequence (P35225 other isoform, or with tags, fused parts or gaps limits assumed): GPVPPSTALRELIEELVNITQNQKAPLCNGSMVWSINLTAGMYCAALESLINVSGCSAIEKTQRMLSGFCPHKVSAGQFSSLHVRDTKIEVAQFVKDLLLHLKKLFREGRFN
T3 sequence (P35225 35-146 limits assumed, stated change not applied): as the sequence (P35225 other isoform, or with tags, fused parts or gaps limits assumed) above, with R110Q counted along it
cynomolgus IL-13, sequence (Q0PW92 entry or part of it): as the sequence (P35225 other isoform, or with tags, fused parts or gaps limits assumed) above, with G1S, R10K, M42V, S67N, H83R, L100V, R110Q counted along it

B1: 9C11 (antibody, V domains shown)
VH: QVRLQQPGAELVRPGASVKLSCKASGYTFTSSWIHWVNQRPGQGLEWIGMIHPSDSETRLNQKFKDKATLTVDKSSSTAYMQLSSPTSEDSAVYYCASTATDFDYWGQGTTLTVSS
VL: DVVLTQTPLSLPVNIGDQASISCRSTQTLLNSDGFTYLDWYLQKPGQSPQLLIYLVSNRFSGVPDRFSGSGSGTDFTLKISRVEAEDLGVYYCFQNNYLPLTFGAGTKLELKR
The term Kd denotes the equilibrium constant for the complex coming apart. Low values mean a tighter complex, high ones a looser complex. The koff is the first-order rate constant of dissociation. Low values mean a long-lived complex, high ones a short-lived complex. As a reminder, the kon is the second-order rate constant of association. In general, IC50 refers to the midpoint of a concentration-inhibition curve. Higher therefore signals lower potency. Regarding B1, the binding result with mouse IL-13 was “no binding (tested: 0.1 to 100 ng/ml)”. Also, the “Average IC50, IL-13-induced TARC production by A-549 cells” value in the assay with cynomolgus IL-13 was 0.64 nM; in the assay with human IL-13 wild type [1], 0.106 nM; in assay [2], 0.17 nM. Besides, the equilibrium dissociation constant (Kd) with human IL-13 wild type [3] came out at 0.112 nM; in assay [4], 0.0921 nM. The koff in the assay with human IL-13 wild type [3] was found to be 6.5e-05 s⁻¹; in assay [4], 5.86e-05 s⁻¹. Moreover, the results for the kon (with human IL-13 wild type [3]; in assay [4]) were 579000 M⁻¹ s⁻¹ and 637000 M⁻¹ s⁻¹, respectively. The molecule also came in with a concentration for half-maximal inhibition (IC50) with human IL-13 wild type [5] greater than 10 nM.
